In US20180362585A1 (Bicycle, published 2018):
Numbered stars: 1 amine (or outer) side, 2 acyl side, 3 side chain; on linkers, the order of the positions; unused ones are H or OH. Bridge positions count the residues as written; N and C are the ends. Square brackets hold non-standard residues; d marks the D form. Ends that are not written are not given here. TBMB = c1c(C[*:1])cc(C[*:3])cc1C[*:2]; Sar = CNCC(=O)O

These binders were tested against T1, human plasma Kallikrein (human, UniProt P03952 20-638) (assay: enzyme inhibition).
T1 construct: also called hPK; human PK
T1 sequence (P03952 20-638 limits assumed): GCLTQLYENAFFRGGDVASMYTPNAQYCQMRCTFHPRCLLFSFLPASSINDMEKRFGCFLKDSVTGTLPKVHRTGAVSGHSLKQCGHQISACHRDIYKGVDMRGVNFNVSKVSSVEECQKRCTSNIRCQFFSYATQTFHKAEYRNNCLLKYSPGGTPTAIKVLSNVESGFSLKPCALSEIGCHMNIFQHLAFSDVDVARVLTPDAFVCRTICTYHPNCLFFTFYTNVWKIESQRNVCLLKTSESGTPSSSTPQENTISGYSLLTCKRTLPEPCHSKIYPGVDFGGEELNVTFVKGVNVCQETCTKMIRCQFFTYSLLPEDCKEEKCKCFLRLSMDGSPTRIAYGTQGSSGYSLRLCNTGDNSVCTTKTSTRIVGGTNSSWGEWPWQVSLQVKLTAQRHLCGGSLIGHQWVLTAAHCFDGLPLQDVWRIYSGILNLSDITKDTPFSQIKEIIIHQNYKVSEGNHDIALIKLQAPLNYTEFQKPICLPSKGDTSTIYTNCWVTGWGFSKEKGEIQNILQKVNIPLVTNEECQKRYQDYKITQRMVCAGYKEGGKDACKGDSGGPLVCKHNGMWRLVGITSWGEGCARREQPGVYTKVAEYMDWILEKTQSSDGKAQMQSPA
Method: Functional enzyme assays were conducted in 10 mM Tris HCl, 150 mM NaCl, 10 mM MgCl2, 1 mM CaCl₂) and 1 mg/mL BSA (all Sigma UK) pH7.4 at 25° C. in solid black 96 well plates. […] Release of AMC was measured using a Pherastar FS (BMG Labtech), excitation 360 nm, emission 460 nm. The rate of the linear phase of the reaction, typically 5 to 45 minutes, was calculated in MARS data analysis software (BMG labtech). The rate was then used to calculate the IC50 and Ki in Prism (GraphPad).

Binder | Ki [nM]
ACRWPARCTHQNYCA (linker 2-8-14 via TBMB; not fully specified (N-terminus, C-terminus)) [06-54 (2A2) T] | 0.49
ACTYPYKCLHQNLCA (linker 2-8-14 via TBMB) [2A10] | 4.98
ACTWPARCTHQNWCA (linker 2-8-14 via TBMB; not fully specified (N-terminus, C-terminus)) [06-09] | 1.2
ACTWPARCTMQNWCA (linker 2-8-14 via TBMB; not fully specified (N-terminus, C-terminus)) [06-A2*] | 181
ACADPWACLFRRPCA (linker 2-8-14 via TBMB; not fully specified (N-terminus, C-terminus)) [06-63 T] | 1280
ACAWPARCAHQDLCA (linker 2-8-14 via TBMB; not fully specified (N-terminus, C-terminus), also called R1A/V6A) [06-34-03 - Ala1,6] | 0.147
ACNWPYRCLHTDLCA (linker 2-8-14 via TBMB; not fully specified (N-terminus, C-terminus)) [06-157] | 3.3
AC[Sar]WPARC[Sar]HQDLCA (linker 2-8-14 via TBMB; not fully specified (N-terminus, C-terminus), also called AC(N-MeG)WPARC(N-MeG)HQDLCA) [06-34-03 - N-MeGly1,6] | 24.8
ACGGYNNCRAFSYCA (linker 2-8-14 via TBMB; not fully specified (N-terminus, C-terminus)) [1F7] | 2.2
ACAWPAKCLTRELCA (linker 2-8-14 via TBMB; not fully specified (N-terminus, C-terminus)) [1B1] | 8.1
ACSWPARCNHQDLCA (linker 2-8-14 via TBMB; not fully specified (N-terminus, C-terminus)) [06-57] | 0.4
ACRWPARCLTTSLCA (linker 2-8-14 via TBMB; not fully specified (N-terminus, C-terminus)) [06-59] | 0.5

Each binder was assayed against T1, human plasma Kallikrein (assay: phage binding assay).
Method: Library transformant colonies, or selection output colonies, were picked and grown as individual cultures in 2TY broth containing selective antibiotic. The picked colonies were DNA-sequenced using a QIAgen PyroMark Q96 DNA sequencer to reveal the amino-acid substitution present in each clone, and were assayed for human plasma Kallikrein binding as follows. The phage-containing supernatant was harvested from the culture and phage were cyclised with tris bromomethyl benzene (TBMB) based on the methods of Heinis et al (Nature Chemical Biology vol. 5 pp 502-507 (2009)). The purified phage from this process were assayed for binding to biotinylated human plasma Kallikrein using a homogeneous plate-based binding assay; assay read-out measured on a BMG Labtech Pherastar FS plate reader. The quantitative binding data from duplicate assay samples was averaged (mean) and expressed as signal:background. […] The assay data was correlated with the peptide sequences.
Selections against human plasma Kallikrein were performed at a variety of stringencies (see Phage selections' in Methods above). All output sequences were identified and analysed for target binding (see ‘Randomisation of peptide domains—Assay of binding of individual clones’ in Methods above). Table 17 lists each unique sequence, its relative abundance in the selection output (frequency), and a rank number according to target binding strength.

Binder | RANK (Kallikrein binding)
CSHRRWCTHQDLC (linker 1-7-13 via TBMB (inferred), on phage) | 41
CSWPARCTHQDLC (linker 1-7-13 via TBMB, on phage) | 1
CSWAARCTHQDLC (linker 1-7-13 via TBMB, on phage) | 7
CSYPWRCTHQDLC (linker 1-7-13 via TBMB, on phage) | 33
CSMPYRCTHQDLC (linker 1-7-13 via TBMB, on phage) | 31
CSWSYRCTHQDLC (linker 1-7-13 via TBMB, on phage) | 36
CSYPIRCTHQDLC (linker 1-7-13 via TBMB, on phage) | 18
CSWLARCTHQDLC (linker 1-7-13 via TBMB, on phage) | 4
CSWHARCTHQDLC (linker 1-7-13 via TBMB, on phage) | 24
CSYPYRCTHQDLC (linker 1-7-13 via TBMB, on phage) | 26
CSWPYKCTHQDLC (linker 1-7-13 via TBMB, on phage) | 28
CSYPFRCTHQDLC (linker 1-7-13 via TBMB, on phage) | 21
CSFSYKCTHQDLC (linker 1-7-13 via TBMB (inferred), on phage) | 35
CSLPIRCTHQDLC (linker 1-7-13 via TBMB, on phage) | 30
CSWSARCTHQDLC (linker 1-7-13 via TBMB, on phage) | 19
CSIPFKCTHQDLC (linker 1-7-13 via TBMB (inferred), on phage) | 32
CSWQARCTHQDLC (linker 1-7-13 via TBMB, on phage) | 42
CSWPFRCTHQDLC (linker 1-7-13 via TBMB, on phage) | 14
CSWWARCTHQDLC (linker 1-7-13 via TBMB, on phage) | 27
CSHPYRCTHQDLC (linker 1-7-13 via TBMB (inferred), on phage) | 8
CSHPFRCTHQDLC (linker 1-7-13 via TBMB (inferred), on phage) | 9
CSWPYRCTHQDLC (linker 1-7-13 via TBMB, on phage) | 10
CSWPSRCTHQDLC (linker 1-7-13 via TBMB, on phage) | 2
CSQVVGCTHQDLC (linker 1-7-13 via TBMB, on phage) | 38
CSLFDHCTHQDLC (linker 1-7-13 via TBMB, on phage) | 40

Molecular target: T1, human plasma Kallikrein
Test: phage binding assay
Remark: another data set of the same source

Binder | BINDING ASSAY SIGNAL
CSWPARCTHQDLC (linker 1-7-13 via TBMB, on phage) | 110
